In patent US20110091994A1, “Methods for Screening Compounds for Treating and/or Preventing an Hepatitis C Virus Infection” (priority 2008, published 2011):
Where two headings read alike, the source gives them in different places.

Assays:
[1] = target: T1, HCV ORFs (Gal4-DB fusions) (Hepatitis C virus genotype 1b, UniProt Q9WMX2); assay type: binding, HCV genotype 1b, isolate con1; conditions: human protein as prey
T1 construct: expressed in transfected cells; host or cells: Saccharomyces cerevisiae MAV203 (IMAP1) / AH109 (IMAP2)

[2] = test system: HCV ORFs (Gal4-DB fusions); assay type: binding, HCV genotype 1b, isolate con1; conditions: human protein listed by gene symbol; the value names the HCV protein it interacts with
HCV proteins = target: T2, HCV proteins (Hepatitis C virus genotype 1b, UniProt Q9WMX2); assay: Validation by Y2H pairwise matrices; assay type: binding;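 also: yeast two-hybrid pairwise tests of interactions first found in Y2H screens of HCV bait proteins against human cDNA libraries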
T2 construct: expressed in transfected cells

[3] = validation of interaction with HCV protein NS3
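For IMAP Y2H IMAP1 (number of IST) in this document: yeast two-hybrid screens using HCV genotype 1b proteins fused to Gal4-DB as baits against prey cDNA libraries from human spleen and foetal brain, IMAP1 via transformation and IMAP2 via mating.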
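For Interaction with viral protein in this document: yeast two-hybrid screens using HCV genotype 1b proteins fused to Gal4-DB as baits against prey cDNA libraries from human spleen and foetal brain, IMAP1 via transformation and IMAP2 via mating.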

| Molecule | IMAP Y2H IMAP1 (number of IST) ([1]; HCV protein NS3 as bait) | Interaction with viral protein [2] | Y2H matrices (HCV proteins; [3]) | IMAP Y2H IMAP1 (number of IST) ([1]; HCV protein CORE as bait) | Y2H matrices (HCV proteins; validation of interaction with HCV protein CORE) |
| --- | --- | --- | --- | --- | --- |
| RBM4 (protein, UniProt Q9BWF3 1-364, looked up) RNA-binding protein 4: MVKLFIGNLPREATEQEIRSLFEQYGKVLECDIIKNYGFVHIEDKTAAEDAIRNLHHYKLHGVNINVEASKNKSKTSTKLHVGNISPTCTNKELRAKFEEYGPVIECDIVKDYAFVHMERAEDAVEAIRGLDNTEFQGKRMHVQLSTSRLRTAPGMGDQSGCYRCGKEGHWSKECPIDRSGRVADLTEQYNEQYGAVRTPYTMSYGDSLYYNNAYGALDAYYKRCRAARSYEAVAAAAASVYNYAEQTLSQLPQVQNTAMASHLTSTSLDPYDRHLLPTSGAAATAAAAAAAAAAVTAASTSYYGRDRSPLRRATAPVPTVGEGYGYGHESELSQASAAARNSLYDMARYEREQYADRARYSAF | 1 | NS3 | + | – | – |
| RCN3 (protein, UniProt Q96D15 21-328, looked up) Reticulocalbin-3: KPSPDAGPHGQGRVHQAAPLSDAPHDDAHGNFQYDHEAFLGREVAKEFDQLTPEESQARLGRIVDRMDRAGDGDGWVSLAELRAWIAHTQQRHIRDSVSAAWDTYDTDRDGRVGWEELRNATYGHYAPGEEFHDVEDAETYKKMLARDERRFRVADQDGDSMATREELTAFLHPEEFPHMRDIVIAETLEDLDRNKDGYVQVEEYIADLYSAEPGEEEPAWVQTERQQFRDFRDLNKDGHLDGSEVGHWVLPPAQDQPLVEANHLLHESDTDKDGRLSKAEILGNWNMFVGSQATNYGEDLTRHHDEL | 2 | NS3 | + | – | – |
| SDCCAG8 (protein, UniProt Q86SQ7 1-713, looked up) Serologically defined colon …: MAKSPENSTLEEILGQYQRSLREHASRSIHQLTCALKEGDVTIGEDAPNLSFSTSVGNEDARTAWPELQQSHAVNQLKDLLRQQADKESEVSPSRRRKMSPLRSLEHEETNMPTMHDLVHTINDQSQYIHHLEAEVKFCKEELSGMKNKIQVVVLENEGLQQQLKSQRQEETLREQTLLDASGNMHNSWITTGEDSGVGETSKRPFSHDNADFGKAASAGEQLELEKLKLTYEEKCEIEESQLKFLRNDLAEYQRTCEDLKEQLKHKEFLLAANTCNRVGGLCLKCAQHEAVLSQTHTNVHMQTIERLVKERDDLMSALVSVRSSLADTQQREASAYEQVKQVLQISEEANFEKTKALIQCDQLRKELERQAERLEKELASQQEKRAIEKDMMKKEITKEREYMGSKMLILSQNIAQLEAQVEKVTKEKISAINQLEEIQSQLASREMDVTKVCGEMRYQLNKTNMEKDEAEKEHREFRAKTNRDLEIKDQEIEKLRIELDESKQHLEQEQQKAALAREECLRLTELLGESEHQLHLTRQEKDSIQQSFSKEAKAQALQAQQREQELTQKIQQMEAQHDKTENEQYLLLTSQNTFLTKLKEECCTLAKKLEQISQKTRSEIAQLSQEKRYTYDKLGKLQRRNEELEEQCVQHGRVHETMKQRLRQLDKHSQATAQQLVQLLSKQNQLLLERQSLSEEVDRLRTQLPSMPQSDC | 1 | NS3 | + | – | – |
| SECISBP2 (protein, UniProt Q96T21 1-854, looked up) Selenocysteine insertion …: MASEGPREPESEGIKLSADVKPFVPRFAGLNVAWLESSEACVFPSSAATYYPFVQEPPVTEQKIYTEDMAFGASTFPPQYLSSEITLHPYAYSPYTLDSTQNVYSVPGSQYLYNQPSCYRGFQTVKHRNENTCPLPQEMKALFKKKTYDEKKTYDQQKFDSERADGTISSEIKSARGSHHLSIYAENSLKSDGYHKRTDRKSRIIAKNVSTSKPEFEFTTLDFPELQGAENNMSEIQKQPKWGPVHSVSTDISLLREVVKPAAVLSKGEIVVKNNPNESVTANAATNSPSCTRELSWTPMGYVVRQTLSTELSAAPKNVTSMINLKTIASSADPKNVSIPSSEALSSDPSYNKEKHIIHPTQKSKASQGSDLEQNEASRKNKKKKEKSTSKYEVLTVQEPPRIEDAEEFPNLAVASERRDRIETPKFQSKQQPQDNFKNNVKKSQLPVQLDLGGMLTALEKKQHSQHAKQSSKPVVVSVGAVPVLSKECASGERGRRMSQMKTPHNPLDSSAPLMKKGKQREIPKAKKPTSLKKIILKERQERKQRLQENAVSPAFTSDDTQDGESGGDDQFPEQAELSGPEGMDELISTPSVEDKSEEPPGTELQRDTEASHLAPNHTTFPKIHSRRFRDYCSQMLSKEVDACVTDLLKELVRFQDRMYQKDPVKAKTKRRLVLGLREVLKHLKLKKLKCVIISPNCEKIQSKGGLDDTLHTIIDYACEQNIPFVFALNRKALGRSLNKAVPVSVVGIFSYDGAQDQFHKMVELTVAARQAYKTMLENVQQELVGEPRPQAPPSLPTQGPSCPAEDGPPALKEKEEPHYIEIWKKHLEAYSGCTLELEESLEASTSQMMNLNL | 1 | NS3 | + | – | – |
| SERTAD1 (protein, UniProt Q9UHV2 1-236, looked up) SERTA domain-containing …: MLSKGLKRKREEEEEKEPLAVDSWWLDPGHTAVAQAPPAVASSSLFDLSVLKLHHSLQQSEPDLRHLVLVVNTLRRIQASMAPAAALPPVPSPPAAPSVADNLLASSDAALSASMASLLEDLSHIEGLSQAPQPLADEGPPGRSIGGAAPSLGALDLLGPATGCLLDDGLEGLFEDIDTSMYDNELWAPASEGLKPGPEDGPGKEEAPELDEAELDYLMDVLVGTQALERPPGPGR | 3 | NS3 | + | – | – |
| SESTD1 (protein, UniProt Q86VW0 1-696, looked up) SEC14 domain and spectrin …: MEASVILPILKKKLAFLSGGKDRRSGLILTIPLCLEQTNMDELSVTLDYLLSIPSEKCKARGFTVIVDGRKSQWNVVKTVVVMLQNVVPAEVSLVCVVKPDEFWDKKVTHFCFWKEKDRLGFEVILVSANKLTRYIEPCQLTEDFGGSLTYDHMDWLNKRLVFEKFTKESTSLLDELALINNGSDKGNQQEKERSVDLNFLPSVDPETVLQTGHELLSELQQRRFNGSDGGVSWSPMDDELLAQPQVMKLLDSLREQYTRYQEVCRQRSKRTQLEEIQQKVMQVVNWLEGPGSEQLRAQWGIGDSIRASQALQQKHEEIESQHSEWFAVYVELNQQIAALLNAGDEEDLVELKSLQQQLSDVCYRQASQLEFRQNLLQAALEFHGVAQDLSQQLDGLLGMLCVDVAPADGASIQQTLKLLEEKLKSVDVGLQGLREKGQGLLDQISNQASWAYGKDVTIENKENVDHIQGVMEDMQLRKQRCEDMVDVRRLKMLQMVQLFKCEEDAAQAVEWLSELLDALLKTHIRLGDDAQETKVLLEKHRKFVDVAQSTYDYGRQLLQATVVLCQSLRCTSRSSGDTLPRLNRVWKQFTIASEERVHRLEMAIAFHSNAEKILQDCPEEPEAINDEEQFDEIEAVGKSLLDRLTVPVVYPDGTEQYFGSPSDMASTAENIRDRMKLVNLKRQQLRHPEMVTTES | 1 | NS3 | + | – | – |
| SF3B2 (protein, UniProt Q13435 1-895, looked up) Splicing factor 3B subunit 2: MATEHPEPPKAELQLPPPPPPGHYGAWAAQELQAKLAEIGAPIQGNREELVERLQSYTRQTGIVLNRPVLRGEDGDKAAPPPMSAQLPGIPMPPPPLGLPPLQPPPPPPPPPPGLGLGFPMAHPPNLGPPPPLRVGEPVALSEEERLKLAQQQAALLMQQEERAKQQGDHSLKEHELLEQQKRAAVLLEQERQQEIAKMGTPVPRPPQDMGQIGVRTPLGPRVAAPVGPVGPTPTVLPMGAPVPRPRGPPPPPGDENREMDDPSVGPKIPQALEKILQLKESRQEEMNSQQEEEEMETDARSSLGQSASETEEDTVSVSKKEKNRKRRNRKKKKKPQRVRGVSSESSGDREKDSTRSRGSDSPAADVEIEYVTEEPEIYEPNFIFFKRIFEAFKLTDDVKKEKEKEPEKLDKLENSAAPKKKGFEEEHKDSDDDSSDDEQEKKPEAPKLSKKKLRRMNRFTVAELKQLVARPDVVEMHDVTAQDPKLLVHLKATRNSVPVPRHWCFKRKYLQGKRGIEKPPFELPDFIKRTGIQEMREALQEKEEQKTMKSKMREKVRPKMGKIDIDYQKLHDAFFKWQTKPKLTIHGDLYYEGKEFETRLKEKKPGDLSDELRISLGMPVGPNAHKVPPPWLIAMQRYGPPPSYPNLKIPGLNSPIPESCSFGYHAGGWGKPPVDETGKPLYGDVFGTNAAEFQTKTEEEEIDRTPWGELEPSDEESSEEEEEEESDEDKPDETGFITPADSGLITPGGFSSVPAGMETPELIELRKKKIEEAMDGSETPQLFTVLPEKRTATVGGAMMGSTHIYDMSTVMSRKGPAPELQGVEVALAPEELELDPMAMTQKYEEHVREQQAQVEKEDFSDMVAEHAAKQKQKKRKAQPQDSRGGSKKYKEFKF | 1 | NS3 | + | – | – |
| SIAH1 (protein, UniProt Q8IUQ4 1-282, looked up) E3 ubiquitin-protein ligase …: MSRQTATALPTGTSKCPPSQRVPALTGTTASNNDLASLFECPVCFDYVLPPILQCQSGHLVCSNCRPKLTCCPTCRGPLGSIRNLAMEKVANSVLFPCKYASSGCEITLPHTEKADHEELCEFRPYSCPCPGASCKWQGSLDAVMPHLMHQHKSITTLQGEDIVFLATDINLPGAVDWVMMQSCFGFHFMLVLEKQEKYDGHQQFFAIVQLIGTRKQAENFAYRLELNGHRRRLTWEATPRSIHEGIATAIMNSDCLVFDTSIAQLFAENGNLGINVTISMC | 1 | NS3 | + | – | – |
| PAK4 (protein, UniProt O96013 1-591, looked up) Serine/threonine-protein …: MFGKRKKRVEISAPSNFEHRVHTGFDQHEQKFTGLPRQWQSLIEESARRPKPLVDPACITSIQPGAPKTIVRGSKGAKDGALTLLLDEFENMSVTRSNSLRRDSPPPPARARQENGMPEEPATTARGGPGKAGSRGRFAGHSEAGGGSGDRRRAGPEKRPKSSREGSGGPQESSRDKRPLSGPDVGTPQPAGLASGAKLAAGRPFNTYPRADTDHPSRGAQGEPHDVAPNGPSAGGLAIPQSSSSSSRPPTRARGAPSPGVLGPHASEPQLAPPACTPAAPAVPGPPGPRSPQREPQRVSHEQFRAALQLVVDPGDPRSYLDNFIKIGEGSTGIVCIATVRSSGKLVAVKKMDLRKQQRRELLFNEVVIMRDYQHENVVEMYNSYLVGDELWVVMEFLEGGALTDIVTHTRMNEEQIAAVCLAVLQALSVLHAQGVIHRDIKSDSILLTHDGRVKLSDFGFCAQVSKEVPRRKSLVGTPYWMAPELISRLPYGPEVDIWSLGIMVIEMVDGEPPYFNEPPLKAMKMIRDNLPPRLKNLHKVSPSLKGFLDRLLVRDPAQRATAAELLKHPFLAKAGPPASIVPLMRQNRTR | – | CORE | – | 1 | + |
